The experiment concerns the target human B cell antigen CD19 on human B-ALL cells (human) (UniProt P15391). The experiment in a line: cell-based or functional assay.

In the case of “CarP-RFP (control CarP: extracellular αCD19 scFv, CD8 transmembrane domain, RFP, no cytoplasmic signaling domain) (from UniProt P01732 138-206)”, the percent of CarP-RFP macrophages (from GMPs expanded in modified SCF/2i) that engulfed GFP-labeled human B-ALL cells within 1 hour of co-culture; control CAR without signaling domain turned out to be 0.87% and the percent of macrophages (from mouse SCF/2i GMPs) that phagocytized GFP-labeled human B-ALL cells within 1 hour of co-culture; control CAR without signaling domain amounted to 0.21%.

In turn, “CarP^Fc19-RFP (αCD19 scFv, human CD8 hinge/transmembrane, mouse Fcer1g aa19-86, mouse CD19 aa491-535, P2A-RFP) (from UniProt P01732 138-206; P20491 19-86; P25918 491-535)” gave a percent of macrophages (from mouse SCF/2i GMPs) that engulfed GFP-positive human B-ALL cells within 1 hour of co-culture of 5.23%.

As to “human CarPzFc19-RFP (αCD19 scFv, human CD8 hinge/transmembrane, human CD3ζ aa52-164, human Fcer1g aa45-86, human CD19 aa498-544) (from UniProt P01732 138-206; P20963 52-164; P30273 45-86; P15391 498-544)”, the percent of macrophages (from GMPs expanded in modified SCF/2i) that engulfed GFP-labeled human B-ALL leukemia cells within 1 hour of co-culture, by flow cytometry amounted to 28.6%.

For the substance “αCD19 CarP^zFc19-RFP (αCD19 scFv, human CD8 hinge/transmembrane, mouse CD3ζ aa52-164, mouse Fcer1g aa45-86, mouse CD19, P2A-RFP) (from UniProt P01732 138-206; P24161 52-164; P20491 45-86; P25918 491-535)”, the percent of macrophages (from mouse SCF/2i GMPs) that engulfed human B-ALL leukemia cells within 1 hour of co-culture, by flow cytometry is 41.6%.
